According to patent US10883116B2, “Transduction buffer” (Koninklijke Nederlandse Akademie van Wetenschappen, priority 2013, dated 2021):
Entries after “also recorded” stand apart in the source; their conditions may differ.

Assays:
[1] = tested on: murine embryonic fibroblasts (MEFs); assay: β-Lactamase protein transduction assay (CCF2-AM), protocol 3/700
From the text: To further characterize the protein transduction process we analyzed the effect of time, osmolality, transduction compound concentration and protein concentration on the transduction process. To this end, we set up a β-Lactamase protein transduction assay and measured intracellular β-Lactamase activity using CCF2-AM, an intracellular fluorescent β-Lactamase substrate that changes emission wavelength when cleaved by the enzyme (FIG. 3A). […] While we used the immortalized COS7 cell line in our initial studies, we wanted to know if the compound-mediated protein transduction would also allow the transduction of protein into primary cells. We therefore transduced murine embryonic fibroblasts (MEFs) with β-Lactamase (1 μM final concentration), using NaCl-adjusted hypertonic media (700 mOsm/Kg) and 25 mM NDSB201. β-Lactamase activity was set at 1 at the start of the experiment and relative intracellular β-Lactamase activity was measured as a function of time (FIG. 3B, bars). As a control, β-Lactamase transduction was measured in isotonic media in the presence of 25 mM NSDB201 (FIG. 3B, open circles).
β-lactamase transduction was performed using the 3/700 protocol above in murine embryonic fibroblasts (MEFs). A black, clear-bottom 96 well-plate was coated with 0.15 mg/ml of Poly-D-Lysine for 1 h at room temperature. 12,000 MEFs cells were seeded per well in MEF media without antibiotics. Next day, cells were transduced using the transduction protocol 3/700 as describe above. […] Na- or Rb-salt was added to adjust the final tonicity to 700 mOsm/Kg. […] After 3 hrs., the transduction media was replaced by fresh MEF media for 30 min. Subsequently, cells were washed once with phenol-red-free DMEM. β-lactamase activity was measured using the CCF2-AM kit following the manufacturer's instructions. In brief, 120 μl of CCF2-AM loading media was added per well and cells were incubated for 1 h at room temperature. Cells were washed two times with DMEM phenol-red free and incubated for an additional 30-60 min. Fluorescence emission was measured at […] and 510 nm following manufacturer's instructions. All tests were done in triplicate.

[2] = tested on: KBM7 cells; format: cell-based; conditions: human, 250 mM
Procedure: (B) BrdU incorporation rate was determined in KBM7 cells incubated with osmocytosis buffer with NDSB-201 or GABA at different time points. Untreated cells were considering as 100% of BrdU incorporation.
Next we optimized the transduction media to allow the transduction of recombinant Cas9. […] For this reason we developed a “Cas9-adapted transduction protocol” (the “fourth protocol”) with a final osmolality of 1250 mOsmol/Kg and a concentration of 250 mM of NDSB-201 (transduction compound #01) or other transduction compounds selected from the FIGS. 7A-7D. We expected that higher osmolalities and NDSBs will induce faster protein transduction but also could possibly increase the cellular toxicity. To characterize this new transduction conditions we measured BrdU incorporation upon high osmolarity (1250 mOsm/Kg) transduction at different short time points, in KBM7 cells.

[3] = tested on: KBM7 cells; assay: CRE recombinase reporter in KBM7 cells, Cas9-adapted transduction buffer; format: cell-based, human; conditions: 1250 mOsmol/Kg, 250 mM GABA
Procedure: (C) Top panel. Schematic depiction of the CRE recombinase reporter. […] Untransduced cells express Red fluorescent protein. […] Bottom panel. KBM7 cells transduced with CRE protein with osmocytosis media at 1250 mOsmol/Kg with 250 mM GABA (compound #20) during 60 minutes. Upper panels represent fluorescent pictures in green and red channel. Bottom panels represent FACS plots showing in x axes green fluorescence and in y axes red fluorescence or frequency of events. Percentages of events are depicted in the corresponding area.
To further test the duration of the transduction with the modified transduction buffer, we performed a Cre recombinase protein transduction at 1250 mOsmol/Kg and 250 mM GABA at different time points and measured the percentage of cells with successful cre-mediated reporter activation as well as BrdU incorporation as a measure of cell proliferation and survival. Under these conditions, the optimal transduction time based on cell survival and Cre transduction was around 60 minutes. At those time points, one round of Cre protein transduction gave an 80% of GFP positive KBM7 cells. And two subsequent rounds of Cre protein transduction yielded 94% positive KBM7 (FIG. 19C). A second round of protein transduction didn't affect cell survival rate.

[4] = tested on: MEFs cells expressing GAL3-GFP protein; assay: GAL3-GFP macropinosome vesicle leakage reporter assay; conditions: 700/3 conditions
Procedure: Schematic representation of the GAL3-GFP reporter assay. Upon initiation of transduction, extracellularly applied protein is taken up into macropinosomes (grey vesicles). […] At the same time, the compromised macropinosome membrane now allows entry of cytosolic GAL3-GFP protein, which binds to—and accumulates at the intra-macropinosome carbohydrates resulting in a bright fluorescent signal (white vesicles). […] GAL3-GFP cells were incubated with transduction media at 700 mOsmol/Kg with or without the macropinocytosis inhibitor EIPA. Untreated cells were included as negative control.
For transduction to occur, proteins that have been taken by macropinocytosis have to be released into the cytosol. […] To test the efficacy of potential transduction compound candidates, we set up an assay to monitor macropinosome vesicle permeation. […] We set up a reporter system in which Galectin-3 protein is fused to GFP (GAL3-GFP). Cytosolic GAL3-GFP protein relocalises to the interior of permeabilized macropinosomes, whereby a multimer complex is formed with intense green fluorescent emission. MEFs cells expressing GAL3-GFP protein were transduced using the 700/3 conditions.

[5] = tested on: GFP-expressing murine embryonic fibroblasts (MEFs); assay: Macropinocytosis mediated uptake of TMR-dextran and BSA, confocal microscopy; format: cell-based; conditions: 100 μM EIPA 30 min before and during transduction
Procedure: To assess if the transduction buffer would permit the simultaneous transduction of proteins and large molecules, we analyzed macropinocytosis mediated uptake of TMR-dextran (red) and fluorescently labeled BSA protein (cyan) by GFP-expressing murine embryonic fibroblasts (MEFs). In brief, MEFs expressing eGFP protein (green) were incubated with 5 μg/ml of high molecular weight TMR-Dextran (red) and 1 μg of BSA-Alexa-647 (far-red) in 1× transduction media (protocol 700/3) for 30 min. Subsequently, cells were washed twice in 1× transduction buffer. Finally, cells were maintained in 1× transduction buffer and immediately analyzed by confocal microscopy. Dextran and BSA uptake was inhibited by incubating cells with 100 μM Ethylisopropylamiloride (EIPA) 30 min before and during transduction procedure.

[6] = tested on: human iPSC-derived glial cells and neurons; assay: CRE reporter in human iPSC-derived glial cells and neurons; format: cell-based; conditions: 5 μM CRE
From the text: (§1) A similar strategy of CRE-recombinase mediated red-to-green reporter shift as described above, was utilized to assess the transduction of murine and human neurons, glia and neural stem cells. FIG. 10A depicts a schematic representation of the assay. […] Since the fluorescent reporter construct was introduced into the iPSC-derived glial cells and neurons using lentiviral infection, cells likely incorporated multiple copies of this reporter.

[7] = tested on: human induced pluripotent stem cells (iPSCs); assay: CRE recombinase dsRed-to-eGFP reporter, flow cytometry
[8] = tested on: murine ESCs; assay: ESC proliferation by cell counting after CRE transduction; format: cell-based; conditions: with or without Tat-HA2 fusion peptide
From the text: Top & bottom graph. After 2 days, transduced (white circle) or untransduced (grey bars) cells were counted every day to make cell proliferation curves.
Untransduced cells were used as a control.

[9] = tested on: murine embryonic stem cells (mESCs); assay: CRE recombinase Lox-Stop-Lox-eGFP reporter, flow cytometry
From the text: To explore protein transduction of murine embryonic stem cells in more detail, we used a transgenic mESC line in which a CRE-recombinase inducible reporter was stably integrated in the ColA1 locus^2. […] Next we tested whether protein transduction affected ESC proliferation. After two rounds of CRE-protein transduction, the doubly transduced cells in FIG. 8B were trypsinized, seeded onto MEFs feeders, and cell proliferation was monitored by cell counting. Untransduced cells were used as a control. […] Next we explored the expression of key pluripotency factors in the double transduced mESCs by qRTPCR. […] To test the pluripotency of the transduced mESCs, double-transduced GFP+ ESCs from the experiment in FIG. 8B were injected into host blastocyst embryos and transplanted into pseudopregnant foster mice.

[10] = tested on: murine neurospheres; assay: CRE reporter in murine neurospheres; format: cell-based; conditions: CRE protein transduction, protocol 12/500
From the text: as §1
Neurospheres were transferred to a 96 well plate with 80 μl of the neuronal stem cells media. Right after, 20 μl of CRE in 5× Transduction buffer was added to cell and mixed carefully.

NCCCC(=O)O [Compound #20, gamma-aminobutyric acid]
β-lactamase transduction activity when combined with reference compound #01 (reference set at 100%) ([1]; equimolar with NDSB201 (#01), 12.5 mM each, total 25 mM, 3 hours, 700 mOsm/Kg): largely unchanged
cell survival (BrdU incorporation) in KBM7 [2]: much better survival than NDSB-201
optimal transduction time based on cell survival and Cre transduction [3]: around 60 minutes

CCN(c1nc(N)c(C(=O)N=C(N)N)nc1Cl)C(C)C [EIPA, 5-(N-ethyl N-isopropyl)-amiloride, reference compound]
Gal3-GFP localisation to macropinocytic vesicles (vesicle leakage) [4]: did not relocalize to vesicles
effect on Dextran and BSA transduction [5]: inhibited
effect on protein transduction in the presence of FGF and PDGF ([1]; 700 mOsm/Kg, 25 mM NDSB201): completely blocked protein transduction
effect of endocytic pathway inhibitor on protein transduction ([1]; 3 hours, 1 μM β-lactamase, 700 mOsm/Kg NaCl, 25 mM NDSB201): strongly inhibited; also recorded: completely inhibits protein transduction

B1: CRE protein: recombinant CRE recombinase protein (protein, UniProt P06956 1-343, looked up)
Recombinase cre: MSNLLTVHQNLPALPVDATSDEVRKNLMDMFRDRQAFSEHTWKMLLSVCRSWAAWCKLNNRKWFPAEPEDVRDYLLYLQARGLAVKTIQQHLGQLNMLHRRSGLPRPSDSNAVSLVMRRIRKENVDAGERAKQALAFERTDFDQVRSLMENSDRCQDIRNLAFLGIAYNTLLRIAEIARIRVKDISRTDGGRMLIHIGRTKTLVSTAGVEKALSLGVTKLVERWISVSGVADDPNNYLFCRVRKNGVAAPSATSQLSTRALEGIFEATHRLIYGAKDDSGQRYLAWSGHSARVGAARDMARAGVSIPEIMQAGGWTNVNIVMNYIRNLDSETGAMVRLLEDGD
eGFP reporter activation [6]: efficient activation of the eGFP reporter
cells shifted to eGFP expression ([7]; 5 μM CRE protein, 12 hours at 500 mOsm/Kg, single transduction): 64%
eGFP cells ([7]; double CRE protein transduction, without Tat-HA2 fusion peptide): 78%
ESC proliferation after two rounds of CRE protein transduction [8]: did not affect ESC proliferation
GFP positive KBM7 cells ([3]; one round, around 60 minutes): 80%
positive KBM7 ([3]; two subsequent rounds): 94%
GFP+ ESCs ([9]; 5 μM CRE, two sequential rounds, 12 hrs each at 500 mOsm/Kg with glycerol and glycine): 79%
GFP-positive mESCs ([9]; Okada method (hypertonic/hypotonic), 5 μM CRE-recombinase protein): 6%
eGFP reporter activation [10]: efficient activation of the eGFP reporter
